# Test results published in the supplement of paper PMC7877785.
# ± gives the uncertainty stated by the source.
# Test: self-splicing fitness, log relative to wild type (ln ratio); higher = more splicing; Tetrahymena group I intron in knt gene, E. coli kanamycin selection, DiMSum; sequences stand for … in CUCUCU…GGAGGGAAAAGUUAUCAGGCAUGCACCUGGUAGCUAGUCUUUAAACCAAUAGAUUGCAUCGGUUUAAAAGGCAAGACCGUCAAAUUGCGGGAAAGGGGUCAACAGCCGUUCAGUACCAAGUCUCAGGGGAAACUUUGAGAUGGCCUUGCAAAGGGUAUGGUAAUAAGCUGACGGACAUGGUCCUAACCACGCAGCCAAGUCCUAAGUCAACAGAUCUUCUGUUGAUAUGGAUGCAGUUCACAGACUAAAUGUCGGUCGGGGAAGAUGUAUUCUUCUCAUAAGAUAUAGUCGGACCUCUCCUUAAUGGGAGCUAGCGGAUGAAGUGAUGCAACACUGGAGCCGCUGGGAACUAAUUUGUAUGCGAAAGUAUAUUGAUUAGUUUUGGAGUACUCGUGGUCG
# In short: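 The eight P1ex-region nucleotides of an intron in the knt kanamycin-resistance gene on pET-22b(+) were all randomised and the library put into E. coli BL21(DE3). Six replicate transformations were grown overnight at 37°C or 30°C on LB agar with or without 25 μg/mL kanamycin, together with 100 μg/mL carbenicillin, 50 μM IPTG and 0.2% rhamnose. Colonies were pooled and amplicon-sequenced on an Illumina HiSeq 2500. Fitness from DiMSum is the error-weighted combination of wild-type-normalised replicate fold changes, kanamycin over none.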
Sequence,self-splicing fitness (ln) (30 °C),self-splicing fitness (ln) (37 °C)
UGAUAGCAAUAUUACGGACU,-1.17 ± 0.099,0.214 ± 0.18
UAGGAGCAAUAUUACGCUUC,-2.64 ± 0.35,–
ACAGAGCAAUAUUACGUGGC,-3.8 ± 0.25,-2.31 ± 0.32
CUCUAGCAAUAUUACGACCU,-2.94 ± 0.3,–
GAUAAGCAAUAUUACGUAAU,-1.78 ± 0.073,-0.923 ± 0.1
CCGCAGCAAUAUUACGAAAU,-3.66 ± 0.32,-3.38 ± 0.33
CAGCAGCAAUAUUACGCGAU,-3.91 ± 0.22,-1.83 ± 0.17
AACAAGCAAUAUUACGUCGC,-3.63 ± 0.14,-2.21 ± 0.17
AUAUAGCAAUAUUACGGAUG,-3.03 ± 0.25,-2.15 ± 0.28
UACCAGCAAUAUUACGUCGU,-2.09 ± 0.09,-2.14 ± 0.12
CUUCAGCAAUAUUACGCGCU,–,-1.96 ± 0.46
AGUUAGCAAUAUUACGAUUA,–,-0.435 ± 0.33
GGUCAGCAAUAUUACGAGCA,-0.762 ± 0.32,–
GAACAGCAAUAUUACGGCCG,-2.39 ± 0.11,-0.46 ± 0.14
UGUGAGCAAUAUUACGGGGC,-3.14 ± 0.39,-2.25 ± 0.33
CGUGAGCAAUAUUACGCCGG,-2.32 ± 0.24,-2.58 ± 0.39
UACGAGCAAUAUUACGCUCG,–,-1.74 ± 0.31
UUCAAGCAAUAUUACGCAGG,-2.71 ± 0.14,-1.78 ± 0.13
ACGGAGCAAUAUUACGGUCU,-3.07 ± 0.21,-2.44 ± 0.26
AAAUAGCAAUAUUACGGUGA,-1.69 ± 0.13,-0.521 ± 0.11
GCUCAGCAAUAUUACGGAAG,-2.23 ± 0.09,-0.736 ± 0.11
ACCUAGCAAUAUUACGUCCG,-2.21 ± 0.14,-0.377 ± 0.19
GUCCAGCAAUAUUACGGGUC,-1.73 ± 0.13,-1.7 ± 0.16
GCGAAGCAAUAUUACGUUUG,-2.87 ± 0.14,-2.68 ± 0.23
UAUGAGCAAUAUUACGAAUC,–,-1.07 ± 0.26

Sequence,self-splicing fitness (ln) (30 °C),self-splicing fitness (ln) (37 °C)
GUAGAGCAAUAUUACGGUUG,-2.62 ± 0.15,-1.13 ± 0.22
ACUAAGCAAUAUUACGUAGC,-2.96 ± 0.16,-1.25 ± 0.13
AAUUAGCAAUAUUACGGUGG,-2.7 ± 0.18,-1.96 ± 0.22
GAUGAGCAAUAUUACGACGC,-0.267 ± 0.15,0.408 ± 0.23
ACGGAGCAAUAUUACGCGGA,-3.41 ± 0.37,-1.54 ± 0.26
CGAUAGCAAUAUUACGGUAA,-3.58 ± 0.31,-1.8 ± 0.27
AUUCAGCAAUAUUACGAAAC,-1.17 ± 0.061,-0.231 ± 0.1
UCAUAGCAAUAUUACGAGCC,–,-1.76 ± 0.49
UUCGAGCAAUAUUACGGCAA,-0.587 ± 0.099,-0.26 ± 0.12
GCGCAGCAAUAUUACGGGGG,-2.2 ± 0.12,-1.4 ± 0.12
ACUUAGCAAUAUUACGUAUU,-2.02 ± 0.12,-2.26 ± 0.17
UUGUAGCAAUAUUACGCGCG,-1.25 ± 0.12,-0.356 ± 0.18
UCCGAGCAAUAUUACGGUUC,-3.78 ± 0.39,-3.02 ± 0.31
CGAUAGCAAUAUUACGUAGG,-0.695 ± 0.056,-0.444 ± 0.068
CGUUAGCAAUAUUACGCCAU,–,-1.61 ± 0.2
CAUGAGCAAUAUUACGAUAG,-1.55 ± 0.088,-0.709 ± 0.1
GAGCAGCAAUAUUACGUCAU,-2.38 ± 0.12,-1.02 ± 0.13
GCCUAGCAAUAUUACGCCGA,-0.66 ± 0.49,–
UAAUAGCAAUAUUACGAGCA,-1.64 ± 0.16,-1.21 ± 0.16
GGGAAGCAAUAUUACGUUGU,-3.23 ± 0.22,-2.31 ± 0.29
UACCAGCAAUAUUACGGGUG,-3.23 ± 0.097,-1.78 ± 0.078
CAUUAGCAAUAUUACGACCG,0.0272 ± 0.082,0.169 ± 0.1
CAAUAGCAAUAUUACGCGUC,-4.09 ± 0.25,-3 ± 0.22
UUCCAGCAAUAUUACGUCGU,-4.1 ± 0.19,-1.85 ± 0.12
CCUAAGCAAUAUUACGGUCA,-3.95 ± 0.37,-3.01 ± 0.2

Sequence,self-splicing fitness (ln) (30 °C),self-splicing fitness (ln) (37 °C)
CUGCAGCAAUAUUACGAUAG,-1.16 ± 0.11,-0.167 ± 0.12
AAUGAGCAAUAUUACGGCUU,-1.85 ± 0.19,-1.19 ± 0.18
GACCAGCAAUAUUACGAGCU,-2.91 ± 0.14,-1.41 ± 0.15
CACCAGCAAUAUUACGAUGU,-3.07 ± 0.12,-0.91 ± 0.085
GUAGAGCAAUAUUACGCGCA,-0.299 ± 0.1,0.0346 ± 0.13
UCUAAGCAAUAUUACGUACU,-2.18 ± 0.17,-1.86 ± 0.21
AUCGAGCAAUAUUACGCAUA,–,-1.54 ± 0.36
UCGGAGCAAUAUUACGGUCC,-2.33 ± 0.4,-1.73 ± 0.49
ACUAAGCAAUAUUACGAAAU,-2.67 ± 0.16,-1.22 ± 0.17
GUAGAGCAAUAUUACGAAAU,-1 ± 0.15,-1.21 ± 0.17
CGGAAGCAAUAUUACGCGUC,-2.62 ± 0.14,-3.1 ± 0.37
UCACAGCAAUAUUACGAUCG,-0.61 ± 0.08,-0.076 ± 0.11
UACGAGCAAUAUUACGCACG,-2.94 ± 0.2,-1.3 ± 0.18
GUUUAGCAAUAUUACGACCU,-1.03 ± 0.11,-0.456 ± 0.14
CACUAGCAAUAUUACGUAUA,-3.17 ± 0.36,-1.5 ± 0.23
AAGAAGCAAUAUUACGCUCC,-2.37 ± 0.2,-0.643 ± 0.18
GGUCAGCAAUAUUACGUAUG,-1.66 ± 0.085,0.0829 ± 0.1
GUGCAGCAAUAUUACGAGGA,-3.01 ± 0.2,-1.74 ± 0.29
AACUAGCAAUAUUACGUUGC,-3.47 ± 0.17,-1.9 ± 0.22
GACUAGCAAUAUUACGGUCU,-3.36 ± 0.22,-3.21 ± 0.33
AGGUAGCAAUAUUACGAACC,-0.58 ± 0.025,-0.294 ± 0.041
CGAGAGCAAUAUUACGAUGU,-3.97 ± 0.25,-1.83 ± 0.19
CAUAAGCAAUAUUACGAAAC,-3.31 ± 0.39,-2.38 ± 0.45
CAGCAGCAAUAUUACGUAGG,-0.47 ± 0.063,-0.331 ± 0.094
AAUCAGCAAUAUUACGGCAA,-0.417 ± 0.074,0.747 ± 0.091

Sequence,self-splicing fitness (ln) (30 °C),self-splicing fitness (ln) (37 °C)
CAACAGCAAUAUUACGGAGG,-1.33 ± 0.048,-0.382 ± 0.065
ACACAGCAAUAUUACGGACU,-0.884 ± 0.054,0.0735 ± 0.063
AGGUAGCAAUAUUACGUAAU,-1.908 ± 0.015,-0.958 ± 0.034
GCUGAGCAAUAUUACGUCGA,-1.34 ± 0.24,-1.72 ± 0.24
GUUGAGCAAUAUUACGGCCA,–,-0.675 ± 0.24
CUGCAGCAAUAUUACGACUU,-2.66 ± 0.14,-2.25 ± 0.17
AUUGAGCAAUAUUACGCAUA,-3 ± 0.21,-2.47 ± 0.24
GCUGAGCAAUAUUACGCUGC,-2.56 ± 0.32,-1.92 ± 0.3
CUAUAGCAAUAUUACGUUUA,-3.4 ± 0.36,-1.74 ± 0.19
GACUAGCAAUAUUACGACAC,-0.0525 ± 0.075,-0.0737 ± 0.093
UAUAAGCAAUAUUACGCCUA,0.213 ± 0.12,0.0424 ± 0.17
AAAAAGCAAUAUUACGCUGA,-4.19 ± 0.34,-1.7 ± 0.17
GAGCAGCAAUAUUACGCGAU,-4.28 ± 0.33,-0.0586 ± 0.21
CAUCAGCAAUAUUACGAGCA,-2.05 ± 0.23,-0.921 ± 0.14
CCAUAGCAAUAUUACGCACG,-0.758 ± 0.081,-0.715 ± 0.1
UCUGAGCAAUAUUACGGUUG,-3.75 ± 0.23,-3.15 ± 0.3
ACAAAGCAAUAUUACGGAAC,-3.33 ± 0.13,-2.43 ± 0.15
AGGAAGCAAUAUUACGCGUC,-3.99 ± 0.33,-2.24 ± 0.24
UCGCAGCAAUAUUACGCUCA,-1.37 ± 0.085,-0.529 ± 0.091
AACUAGCAAUAUUACGAAAU,-2.01 ± 0.09,-0.94 ± 0.1
AUGGAGCAAUAUUACGAUAC,–,-1.71 ± 0.48
AUAGAGCAAUAUUACGAACG,-2.4 ± 0.21,-0.83 ± 0.19
UUAAAGCAAUAUUACGGGAA,-0.821 ± 0.088,-0.351 ± 0.12
UGACAGCAAUAUUACGACCC,-1.52 ± 0.2,-1.01 ± 0.25
